In article PMC2780661:

Experiments:
[1] = target: ATP synthase from mitochondria of Zea mays (Z. mays (endogenous in mitochondria)); assay: single particle electron microscopy
[2] = target: Complex III2 from potato (potato)

| Substance | stoichiometry N [1] | stoichiometry N [2] |
| --- | --- | --- |
| ATP synthase from mitochondria of Zea mays (complex) | 2 |  |
| Complex I from potato |  | 2 |
